From patent EP4293040A1

Target: human trimeric IL-2 receptor (IL-2Rα, IL2Rβ and reconstituted transgenic wild-type GCR) on GnR cells (human) (UniProt P01589)
Experiment: cell-based or functional assay

EC50 of the mRuby2 response (STAT5-mRuby2 reporter): 560 pM
Substance: IL-15 (from UniProt P40933 49-162) (ligand)
